# Test results as given in article PMC4199913 (The FEBS journal, 2014).
# Tests used:
# MaTrx6Δsp = MaTrx6Δsp (Methanosarcina acetivorans, UniProt Q8TIA1); assay: turbidimetric insulin reduction, […] nm; format: biochemical; settings: 0.33 mM DTT, 0.13 mM insulin, 100 mM KPO4 pH 6.8, anaerobic
# MaTrx2 = MaTrx2 (Methanosarcina acetivorans, UniProt Q8TL30); assay: turbidimetric insulin reduction, […] nm; format: biochemical; settings: 0.33 mM DTT, 0.13 mM insulin, 100 mM KPO4 pH 6.8, anaerobic
# MaTrx7 = MaTrx7 (Methanosarcina acetivorans, UniProt Q8TR15); assay: turbidimetric insulin reduction, […] nm; format: biochemical; settings: 0.33 mM DTT, 0.13 mM insulin, 100 mM KPO4 pH 6.8, anaerobic
# purified protein [1] = substrate: NC(=O)C1=CN([C@@H]2O[C@H](COP(=O)(O)OP(=O)(O)OC[C@H]3O[C@@H](n4cnc5c(N)ncnc54)[C@H](O)[C@@H]3O)[C@@H](O)[C@H]2O)C=CC1; assay: purified protein; format: biochemical, Methanosarcina acetivorans; settings: 1 mM DTNB, 0.5 µM MaTrxR, 50 mM Tris-HCl 150 mM NaCl pH 7.2, anaerobic
# purified protein [2] = substrate: NC(=O)C1=CN([C@@H]2O[C@H](COP(=O)(O)OP(=O)(O)OC[C@H]3O[C@@H](n4cnc5c(N)ncnc54)[C@H](OP(=O)(O)O)[C@@H]3O)[C@@H](O)[C@H]2O)C=CC1; assay: purified protein; format: biochemical, Methanosarcina acetivorans; settings: 1 mM DTNB, 0.5 µM MaTrxR, 50 mM Tris-HCl 150 mM NaCl pH 7.2, anaerobic
molecule,measurement,setting,value
OC(CS)C(O)CS (stereo not drawn) [DTT],"turbidimetric insulin reduction, 650 nm",MaTrx6Δsp,All three purified MaTrxs exhibited both DTT- and lipoamide-dependent insulin reduction activity
same,"turbidimetric insulin reduction, 650 nm",MaTrx2,All three purified MaTrxs exhibited both DTT- and lipoamide-dependent insulin reduction activity
same,"turbidimetric insulin reduction, 650 nm",MaTrx7,All three purified MaTrxs exhibited both DTT- and lipoamide-dependent insulin reduction activity
MaTrxR (Methanosarcina acetivorans C2A) (protein) MNSFLFSGGNMYDLIIIGGGPAGLAAGIYAVRFGLDTLVLEKSEISGQISMSDIVENYPGFPSISGLELMEKYRTHAQEVGVKTKITEVLSVRTEGAKKIVSTDSGDLEAKTLIIATGANPKHLGVPGEKEFISKGVSYCAICDGPFFKNKTVVVVGGGNSAVTDALLLSKVAQNVYLIHRRDRLKAAKVLQDRALATPNIEFILNTLVQEIAGSREGVKKVEKVILQDLNSKESRELSTNGVFIYVGIQPNTEFVNVEKNNEGFIITNRWMETSEKGIYAAGDCRDTPIWQLVAAVRDGAIAATAANEYIESLK,Km,purified protein [1],736 ± 57 µM
same,kcat,purified protein [1],0.817 s⁻¹
same,kcat/Km,purified protein [1],1120 M⁻¹ s⁻¹
same,Km,purified protein [2],6.3 ± 0.5 µM
same,kcat,purified protein [2],0.65 s⁻¹
same,kcat/Km,purified protein [2],103000 M⁻¹ s⁻¹
